Measured values from patent US20180148504A1 (EISAI R AND D MANAGEMENT, published 2018).

Key:
[1] = molecular target: T1, recombinant purified FRα (ECL assay calibrator) (human, UniProt P15328 25-234); assay: ECL sandwich on FRα, signal to background; capture 5C12.H8; binder = detection Ab
T1 construct: Calibrator of the ECL sandwich assays; also called FRα calibrator; FRα standard

[2] = molecular target: T1, recombinant purified FRα (ECL assay …); assay: ECL sandwich on FRα, signal to background; capture 1C6.E12.G8; binder = detection Ab
[3] = molecular target: T1, recombinant purified FRα (ECL assay …); assay: ECL sandwich, FRα calibrator; capture 1D2.G8.G10; binder = detection Ab
[4] = molecular target: T1, recombinant purified FRα (ECL assay …); assay: ECL sandwich on FRα, signal to background; capture 24H8.D3; binder = detection Ab
[5] = molecular target: T1, recombinant purified FRα (ECL assay …); assay: ECL sandwich on FRα, signal to background; capture 19D4.B7; binder = detection Ab
[6] = molecular target: T1, recombinant purified FRα (ECL assay …); assay: ECL sandwich, FRα calibrator; capture 1C6.E12.G8; binder = detection Ab
[7] = molecular target: T1, recombinant purified FRα (ECL assay …); assay: ECL sandwich on FRα, signal to background; capture 19D2.G9; binder = detection Ab
[8] = molecular target: T1, recombinant purified FRα (ECL assay …); assay: ECL sandwich on FRα, signal to background; capture 1A8.G11.E7; binder = detection Ab
[9] = molecular target: T1, recombinant purified FRα (ECL assay …); assay: ECL sandwich, FRα calibrator; capture 6A2.G7; binder = detection Ab
[10] = molecular target: T1, recombinant purified FRα (ECL assay …); assay: ECL sandwich on FRα, signal to background; capture 24H8.F3; binder = detection Ab
[11] = molecular target: T1, recombinant purified FRα (ECL assay …); assay: ECL sandwich, FRα calibrator; capture 19D4.B7; binder = detection Ab
[12] = molecular target: T1, recombinant purified FRα (ECL assay …); assay: ECL sandwich, FRα calibrator; capture 19D2.G9; binder = detection Ab
[13] = molecular target: T1, recombinant purified FRα (ECL assay …); assay: ECL sandwich, FRα calibrator; capture 26A9.C4; binder = detection Ab
[14] = molecular target: T1, recombinant purified FRα (ECL assay …); assay: ECL sandwich on FRα, signal to background; capture 26A9.C4; binder = detection Ab
[15] = molecular target: T2, human folate receptor gamma (FRγ), recombinant, C-terminal 6xHis (human, UniProt P41439 23-245, limits assumed); assay: direct ELISA, plates coated with 1 µg/mL FR isoform, dilution series of culture supernatant
T2 construct: Transiently expressed in 293F cells and purified; coated on ELISA plates

[16] = molecular target: T3, human folate receptor beta (FRβ), recombinant, C-terminal 6xHis (human, UniProt P14207 17-230, limits assumed); assay: as above
T3 construct: Transiently expressed in 293F cells and purified; coated on ELISA plates

[17] = molecular target: T1, recombinant purified FRα (ECL assay …); assay: ECL sandwich on FRα, signal to background; capture 1D2.G8.G10; binder = detection Ab
[18] = molecular target: T1, recombinant purified FRα (ECL assay …); assay: ECL sandwich, FRα calibrator; capture 24H8.F3; binder = detection Ab
[19] = molecular target: T1, recombinant purified FRα (ECL assay …); assay: ECL sandwich, FRα calibrator; capture 2F11.F8; binder = detection Ab
[20] = molecular target: T1, recombinant purified FRα (ECL assay …); assay: ECL sandwich, FRα calibrator; capture 1A8.G11.E7; binder = detection Ab
[21] = molecular target: T1, recombinant purified FRα (ECL assay …); assay: ECL sandwich on FRα, signal to background; capture 2F11.F8; binder = detection Ab
[22] = molecular target: T1, recombinant purified FRα (ECL assay …); assay: ECL sandwich, FRα calibrator; capture 5C12.H8; binder = detection Ab
[23] = molecular target: T1, recombinant purified FRα (ECL assay …); assay: ECL sandwich on FRα, signal to background; capture 28H12.G9; binder = detection Ab
[24] = molecular target: T1, recombinant purified FRα (ECL assay …); assay: ECL sandwich on FRα, signal to background; capture 30G6.G6.G4.E9; binder = detection Ab
[25] = molecular target: T1, recombinant purified FRα (ECL assay …); assay: ECL sandwich, FRα calibrator; capture 30G6.G6.G4.E9; binder = detection Ab
[26] = molecular target: T1, recombinant purified FRα (ECL assay …); assay: ECL sandwich on FRα, signal to background; capture 6A2.G7; binder = detection Ab
[27] = molecular target: T1, recombinant purified FRα (ECL assay …); assay: ECL sandwich, FRα calibrator; capture 28H12.G9; binder = detection Ab
[28] = molecular target: T1, recombinant purified FRα (ECL assay …); assay: ECL sandwich, FRα calibrator; capture 24H8.D3; binder = detection Ab
[29] = molecular target: T4, recombinant human folate receptor alpha (rhFRα) (human, UniProt P15328 25-234); assay: BIAcore (SPR), format not described
T4 construct: CHO: Ig kappa leader, C-terminal 6xHis replacing the GPI attachment site; also called FOLR1; FOLR-1
T4 sequence (P15328 25-234 limits assumed): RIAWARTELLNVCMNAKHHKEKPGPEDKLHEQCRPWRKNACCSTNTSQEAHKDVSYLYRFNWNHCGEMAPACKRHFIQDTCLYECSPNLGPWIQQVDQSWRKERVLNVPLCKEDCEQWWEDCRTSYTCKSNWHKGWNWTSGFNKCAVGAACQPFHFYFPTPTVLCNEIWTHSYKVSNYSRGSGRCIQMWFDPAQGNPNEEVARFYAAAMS

T1 sequence (P15328 25-234 limits assumed): as above
T2 sequence (P41439 other isoform, or with tags, fused parts or gaps limits assumed): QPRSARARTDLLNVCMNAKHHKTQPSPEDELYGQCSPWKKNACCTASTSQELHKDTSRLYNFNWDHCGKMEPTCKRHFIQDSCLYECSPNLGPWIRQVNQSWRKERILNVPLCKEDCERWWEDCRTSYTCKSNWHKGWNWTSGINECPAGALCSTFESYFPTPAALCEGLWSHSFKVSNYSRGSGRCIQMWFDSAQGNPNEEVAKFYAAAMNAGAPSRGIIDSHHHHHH
T3 sequence (P14207 other isoform, or with tags, fused parts or gaps limits assumed): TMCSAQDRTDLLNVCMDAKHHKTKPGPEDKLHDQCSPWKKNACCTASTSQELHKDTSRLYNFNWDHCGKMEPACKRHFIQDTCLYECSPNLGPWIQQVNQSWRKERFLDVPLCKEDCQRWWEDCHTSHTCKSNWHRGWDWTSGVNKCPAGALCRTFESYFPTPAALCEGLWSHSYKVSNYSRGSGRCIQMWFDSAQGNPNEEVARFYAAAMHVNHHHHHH

| Average of S/B [1] | Average of S/B [2] | Specific signal at 500 pg/mL [3] | Average of S/B [4] | Average of S/B [5] | Specific signal at 500 pg/mL [6] | Average of S/B [7] | Average of S/B [8] | Specific signal at 500 pg/mL [9] | Average of S/B [10] | Specific signal at 500 pg/mL [11] | Specific signal at 500 pg/mL [12] | Specific signal at 500 pg/mL [13] | Average of S/B [14] | binding result [15] | binding result [16] | Average of S/B [17] | Specific signal at 500 pg/mL [18] | Specific signal at 500 pg/mL [19] | Specific signal at 500 pg/mL [20] | Binder | further results |
| --- | --- | --- | --- | --- | --- | --- | --- | --- | --- | --- | --- | --- | --- | --- | --- | --- | --- | --- | --- | --- | --- |
| 2 | 1 | 64 | 2 | 327 | 64 | 4 | 2 | 1870 | 1 | 33600 | 242 | 72 | 1 | no binding | no binding | 1 | 104 | 61 | 139 | Monoclonal antibody 24H8.F3 (antibody, mouse IgG1, V domains shown, Murine IgG1 kappa from hybridoma; also called ATCC PTA-123097) VH: GPGLVAPSQSLSITCTVSGFSLTSYGVSWVRQPPGKGLEWLGVIWGDGSTNYHSTLISRLSISKDNSKSQVFLKLNSLQTDDTATYYCAKPHPAATGAMDYWGQGTSVTVSS VL: TTSSLSASLGDRVTISCRASQDISNHLNWYQQKPDGTIKLLIYYTSKLHSGVPSRFSGSGSGTDYSLTISNLEQEDIATYFCQQGNTLWTFGGGTKLEIK | Average of S/B [21]: 1; Specific signal at 500 pg/mL [22]: 70; Average of S/B [23]: 2; Average of S/B [24]: 501; Specific signal at 500 pg/mL [25]: 28300; Average of S/B [26]: 27; Specific signal at 500 pg/mL [27]: 85; Specific signal at 500 pg/mL [28]: 158 |
| 1 | 1 | 87 | 1 | 218 | 74 | 1 | 1 | 1690 | 1 | 21800 | 67 | 86 | 1 | no binding | no binding | 1 | 67 | 62 | 57 | Monoclonal antibody 1D2.D8.G10 (antibody, mouse IgG1, V domains shown, Murine IgG1 kappa from hybridoma; also called 1D2.D8.G0; ATCC PTA-123098) VH: QSGTVLARPGASVKMSCKASGYSFTSNWMHWIKQRPGQGLEWIGAIYPGNSDTSYNQKFKGKAKLTAVTSASTAYMELSSLTNEDSAVYHCTRGDGSSFWYFDVWGAGTTVTVSS VL: QSPASLVVSLGQRATISCRASKSVSTSGYSYMYWYQQKSGQPPKLLIYLASNLESGVPARFSGGGSGTDFTLNIHPVEEEDAATYYCQQSRELPPTFGGGTKLEIK | Kd [29]: 6.88 nM; Average of S/B [21]: 1; Specific signal at 500 pg/mL [22]: 73; Average of S/B [23]: 1; Average of S/B [24]: 75; Specific signal at 500 pg/mL [25]: 7910; Average of S/B [26]: 26; Specific signal at 500 pg/mL [27]: 78; Specific signal at 500 pg/mL [28]: 79 |
| 1 | 1 | 64 | 1 | 310 | 75 | 2 | 1 | 1840 | 1 | 41400 | 106 | 80 | 1 | no binding | no binding | 1 | 87 | 60 | 67 | Monoclonal antibody 1A8.G11.E7 (antibody, mouse IgG1, V domains shown, Murine IgG1 kappa from hybridoma; also called ATCC PTA-123100) VH: ESGPGLVAPSQSLSITCTVSGFSLTSYGVSWVRQPPGKGLEWLGVIWGDGSTNYHSTLISRLSISKDNSKSQVFLKLNSLQTDDTATYYCAKPHPAATGAMDYWGQGTSVTVSS VL: TQTTSSLSASLGDRVTISCRASQDISNHLNWYQQKPDGTVKLLIYYTSRLHSGVPSRFSGSGSGTDYSLTISNLEQEDIATYFCQQGNTLWTFGGGTKLEIK | Average of S/B [21]: 1; Specific signal at 500 pg/mL [22]: 76; Average of S/B [23]: 1; Average of S/B [24]: 244; Specific signal at 500 pg/mL [25]: 17900; Average of S/B [26]: 27; Specific signal at 500 pg/mL [27]: 83; Specific signal at 500 pg/mL [28]: 84 |
